Test results taken from US20230312722A1 (NONA BIOSCIENCES SUZHOU, published 2023).
Numbering of substitutions follows the chain as printed. Names and notes keep the numbering of the source. Each block holds one binder with its values, some of them ahead of it.

Columns and labels:
[1] = target: T1, human B7H4 on the cell surface (human, UniProt Q7Z7D3 25-282); test: FACS, SK-BR-3 cells
T1 construct: whole, on cells; also called CHOK1/hu B7H4; B7H4 on SK-BR-3
T1 sequence (looked up): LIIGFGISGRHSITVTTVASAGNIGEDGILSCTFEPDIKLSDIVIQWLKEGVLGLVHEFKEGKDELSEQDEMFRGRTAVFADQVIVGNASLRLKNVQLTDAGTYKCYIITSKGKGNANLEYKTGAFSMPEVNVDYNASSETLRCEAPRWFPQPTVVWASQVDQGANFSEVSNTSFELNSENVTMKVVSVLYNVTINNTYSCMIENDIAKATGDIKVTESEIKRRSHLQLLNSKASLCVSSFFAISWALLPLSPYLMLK
Method: (§1) This example is intended to investigate the in vitro binding activity of anti-human B7H4 H2L2 monoclonal antibody to human/cynomolgus monkey/mouse B7H4. Antibody binding experiments at the cellular level were performed using CHOK1 cell line overexpressing human B7H4 (CHOK1/hu B7H4, Harbour BioMed), CHOK1 cell line overexpressing cynomolgus monkey B7H4 (CHOK1/cyno B7H4, Harbour BioMed), CHOK1 cell line overexpressing mouse B7H4 (CHOK1/m B7H4, Harbour BioMed) and SK-BR-3 cell line (ATCC® HTB-30) highly expressing human B7H4. Briefly, CHOK1/hu B7H4 cells, CHOK1/cyno B7H4 cells, CHOK1/m B7H4 cells or SK-BR-3 cells were digested and resuspended with PBS containing 2% BSA. The cell density was adjusted to 1×10⁶ cells/mL. The cells were seeded in a 96-well V-bottom plate (Corning, #3894) at 100 μL/well, followed by the addition of test antibodies diluted in a 3-fold concentration gradient of 2 times the final concentration, each at 100 μL/well. The cells were incubated at 4° C. for 2 h away from light. Thereafter, the cells in each well were rinsed twice with 100 μL of pre-cooled PBS containing 2% BSA, and centrifuged at 500 g at 4° C. for 5 min, and then the supernatant was discarded. Then 100 μL of a fluorescent secondary antibody (Alexa Fluor 488-conjugated AffiniPure Goat Anti-Human IgG, Fcγ Fragment Specific, Jackson, #109-545-098, 1:500 diluted) was added to each well. The plate was incubated away from light at 4° C. for 1 h. The cells in each well were washed twice with 100 μL of pre-cooled PBS containing 2% BSA, and centrifuged at 500 g at 4° C. for 5 minutes, and then the supernatant was discarded. Finally, the cells in each well were resuspended with 200 μL of pre-cooled PBS containing 2% BSA, and the fluorescence signal values were read using an ACEA Novocyte3000 flow cytometer.

[2] = target: T1, human B7H4 on the cell surface; test: FACS, CHOK1/hu B7H4 cells
Method: as §1

[3] = target: T2, cynomolgus monkey B7H4 on the cell surface (cynomolgus monkey, UniProt A0A2K5U6P5 25-282); test: FACS, CHOK1/cyno B7H4 cells
T2 construct: whole, on cells; also called CHOK1/cyno B7H4
T2 sequence: T1 sequence (looked up) with L53I, F242L, S252A
Method: as §1

[4] = target: T3, mouse B7H4 on the cell surface (mouse, UniProt Q7TSP5 25-257); test: FACS, CHOK1/m B7H4 cells (FIG. 5)
T3 construct: whole, on cells; also called CHOK1/m B7H4
T3 sequence (looked up): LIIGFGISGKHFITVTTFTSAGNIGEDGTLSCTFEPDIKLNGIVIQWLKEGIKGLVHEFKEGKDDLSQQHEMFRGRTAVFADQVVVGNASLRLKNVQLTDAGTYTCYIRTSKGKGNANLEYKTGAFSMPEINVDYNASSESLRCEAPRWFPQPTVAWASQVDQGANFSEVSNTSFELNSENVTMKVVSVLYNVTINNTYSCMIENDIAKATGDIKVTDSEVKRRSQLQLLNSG
Method: as §1, with “Then 100 μL of a fluorescent secondary antibody (Alexa Fluor 488-conjugated AffiniPure Goat Anti-Human IgG, Fcγ Fragment Specific, Jackson, #109-545-098, 1:500 diluted) was added to each well. The plate was incubated away from light at 4° C. for 1 h. The cells in each well were washed twice with 100 μL of pre-cooled PBS containing 2% BSA, and centrifuged at 500 g at 4° C. for 5 minutes, and then the supernatant was discarded.” left out

[5] = target: T1, human B7H4 on the cell surface; test: FACS on MDA-MB-468 cells
[6] = target: T1, human B7H4 on the cell surface; test: FACS, tumor cells (table head: SK-BR-3)
Method: as §1, with “Then 100 μL of a fluorescent secondary antibody (Alexa Fluor 488-conjugated AffiniPure Goat Anti-Human IgG, Fcγ Fragment Specific, Jackson, #109-545-098, 1:500 diluted) was added to each well. The plate was incubated away from light at 4° C. for 1 h. The cells in each well were washed twice with 100 μL of pre-cooled PBS containing 2% BSA, and centrifuged at 500 g at 4° C. for 5 minutes, and then the supernatant was discarded.” left out

[7] = target: T4, human B7-H4 (recombinant protein of the BLI affinity assay, Example 7.2) (human, UniProt Q7Z7D3 29-258, limits assumed); test: BLI (Octet Red 96e), antibody captured on AHC sensor, human B7-H4 in solution, 1:1 global fit
T4 construct: also called human B7H4 protein
T4 sequence (looked up): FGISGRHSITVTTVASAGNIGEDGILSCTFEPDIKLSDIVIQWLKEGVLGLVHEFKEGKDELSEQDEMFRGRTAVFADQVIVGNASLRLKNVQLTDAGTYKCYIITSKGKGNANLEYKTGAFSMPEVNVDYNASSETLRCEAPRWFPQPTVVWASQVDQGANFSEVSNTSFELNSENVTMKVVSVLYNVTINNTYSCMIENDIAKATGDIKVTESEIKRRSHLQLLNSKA
Method: When the affinity of the antigen for the antibody was determined, the rotation speed of the sensor was set at 1000 rpm/min. The AHC sensors (Fortebio, #18-5060) placed in a row were equilibrated for 10 minutes in a test buffer before the AHC sensors were used to capture the B7-H4 antibodies at a capture height of 0.7 nm; the AHC sensors, after equilibrated in the buffer for 120 s, bound to 2-fold serially diluted human B7-H4 (concentrations were 50 nM-3.125 nM and 0 nM) for 180 s, followed by dissociation for 300 s. Finally, the AHC sensor was immersed in a 10 mM glycine-hydrochloric acid solution at pH 1.5 for regeneration to elute the proteins bound to the sensor.
When data analysis was performed using Octet Data Analysis software (Fortebio, version 11.0), 0 nM was taken as a reference well, and reference subtraction was performed; the “1:1 Global fitting” method was selected to fit the data, and the kinetics parameters of the binding of antigens to antigen-binding proteins were calculated, with kₒₙ (1/Ms) values, kdis (1/s) values and KD(M) values obtained (see Table 7-2).

[8] = target: T1, human B7H4 on the cell surface; test: FACS on MDA-MB-468 cells (head of the figure); the same number stands in Table 2-3 of the text under the head SK-BR-3
[9] = target: T1, human B7H4 on the cell surface; test: FACS on MDA-MB-468 cells; in the drawn table the number stands under the head 'EC50 (nM)' (the two heads are interchanged)
[10] = target: T1, human B7H4 on the cell surface; test: FACS on MDA-MB-468 cells; in the drawn table the number stands under the head 'Maximum MFI' (the two heads are interchanged); the head says nM, the axis of the curve µg/mL

EC50 [1]: 85.6 nM
Maximum MFI [1]: 82800 MFI
EC50 [2]: 20 nM
Maximum MFI [2]: 1.15e+06 MFI
EC50 [3]: 24.8 nM
Maximum MFI [3]: 677000 MFI
binding result [4]: no binding
B1: PR002038 (antibody, human IgG1, kappa, V domains shown)
VH: QVQLVQSGAEVKKPGSSMRVSCKASEDTFSSYAISWVRQAPGQGLEWMGGTAPIFGTTNYAQKFQGRVTITADKSTSTAYMELSSLRSEDTAVYYCARGGPYFDYWGQGTLVTVSS
VL: DIQLTQSPATLSVSPGERATLSCRASQSVSSNLAWYQQKPGQAPRLLIYGDYIRATGIPARFSGSGSGTEFTLTISSLQSEDIATYYCQQYVDLPITFGQGTRLEIKR
notes: Initial antibody, human IgG1; also called 1025_B-2A1

EC50 (read off the curve) [5]: ~0.05 µg/mL
EC50 [6]: 0.434 nM
Kd [7]: 1.39 nM
koff [7]: 0.000394 s⁻¹
kon [7]: 283000 M⁻¹ s⁻¹
EC50 [8]: 0.434 nM
Maximum MFI [9]: 204000
EC50 [10]: 0.0508 nM
B2: PR003369 (antibody, human IgG1, kappa, V domains shown)
VH: QVQLVESGGGVVQPGRSLRLSCAASGFTFRSFGMHWVRQAPGKGLEWVAVISYDASNEYYADSVKGRFIISRDNSKDTLYLQMNSLRAGDTAVYYCAKGGALRWYFAYWGQGTLVTVSS
VL: EIVMTQSPATLSVSPGERATLSCRASQSISSNLGWYQQKPGQAPRLLIYGASTRATGIPARFSGSGSGTEFTLTISSLQSEDFAVYYCQQYRSWPPLTFGGGTKVEIKR
notes: L: N92R; Fc S239D, I332E), human IgG1
